These results are taken from PMC3649978.

In this assay the target is EB1 (competitive binding assay, source not named) (UniProt Q61166). Put plainly: competitive binding assay; data not shown; p104_(554–593) as competitor of EB1 binding to recombinant p104.
UniProt Q61166, sequence (Q61166 whole entry): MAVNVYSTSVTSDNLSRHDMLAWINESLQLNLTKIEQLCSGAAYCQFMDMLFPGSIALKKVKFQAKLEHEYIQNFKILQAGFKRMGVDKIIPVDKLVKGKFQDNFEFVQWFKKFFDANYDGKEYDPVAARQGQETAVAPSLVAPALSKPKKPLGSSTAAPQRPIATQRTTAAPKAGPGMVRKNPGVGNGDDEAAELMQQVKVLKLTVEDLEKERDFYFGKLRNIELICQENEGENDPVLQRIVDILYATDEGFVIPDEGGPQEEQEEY

Consider “p104_(554–593) (soluble 40 aa fragment of p104; recombinant form GFP-p104_(554–593)) (domain or fragment)”, for which the molar excess for 50% inhibition (fold molar excess) amounted to 3.
